# Earlier results, collected in US11963996B2, “Method of treating knee pain” (ORTHOTROPHIX, Inc., priority 2018, dated 2024).
# Columns and labels:
# [1] = system: OA patients; settings: human, in vivo; cited from earlier work
# [2] = system: human osteoblastic mesenchymal stem cells; settings: cited from earlier work
# [3] = system: subjects with knee OA; settings: vs placebo, cited from earlier work
molecule,measurement,setting,value
N#Cc1c(N(CC(=O)[O-])CC(=O)[O-])sc(C(=O)[O-])c1CC(=O)[O-].[Sr+2].[Sr+2] [strontium ranelate],Risk of myocardial infarction,[1],increase the risk of myocardial infarction
rat orthologue: TPX-100 orthologue PDLLVRGDNDVPPFSGDGQHFMH (Rat/Mouse),Tritium-thymidine incorporation,[2],promote tritium-thymidine incorporation
"FGF-18: Fibroblast Growth Factor-18, a.k.a. Sprifermin, candidate DMOAD, a putative chondrocyte growth factor (protein, UniProt O76093 28-207, looked up, sprifermin, Fibroblast Growth Factor-18, a.k.a; Sprifermin, candidate DMOAD, a putative chondrocyte growth factor) Fibroblast growth factor 18: EENVDFRIHVENQTRARDDVSRKQLRLYQLYSRTSGKHIQVLGRRISARGEDGDKYAQLLVETDTFGSQVRIKGKETEFYLCMNRKGKLVGKPDGTSKECVFIEKVLENNYTALMSAKYSGWYVGFTKKGRPRKGPKTRENQQDVHFMKRYPKGQPELQKPFKYTTVTKRSRRIRPTHPA",Clinical benefit (WOMAC),[3]; 24 months,no difference in clinical benefit was detected in any treatment group when compared with placebo
same,Clinical benefit,[3]; 36 months,failed to demonstrate clinical benefit compared with the placebo-treated group
same,Tibiofemoral cartilage thickness by MRI,"[3]; three once-weekly IA injections, repeated at months 6, 12, 18, 24 months",dose-dependent increases in tibiofemoral cartilage thickness compared with the placebo group
